Test results reported in IntAct's records for PubMed 24290140.

B1: Four and a half LIM domains protein 1 (Mus musculus), P97447-2 (parent)
chain: MSEKFDCHYCRDPLQGKKYVQKDGRHCCLKCFDKFCANTCVDCRKPISADAKEVHYKNRYWHDNCFRCAKCLHPLASETFVSKDGKILCNKCATREDSPRCKGCFKAIVAGDQNVEYKGTVWHKDCFTCSNCKQVIGTGSFFPKGEDFYCVTCHETKFAKHCVKCNKGLVKAPVWWPMKDNPGTTTASTAKNAP

Variants of: B1
Settings: with suh_mouse Rbpj

| Variant | effect of a mutation on the interaction |
| --- | --- |
| MSEKFDCHYCRDPLQGKKYVQKDGRHCCLKCFDKFCANTCVDCRKPISADAKEVHYKNRYWHDNCFRCAKCLHPLASETFVSKDGKILCNKCATREDSPRCKGCFKAIVAGDQNVEYKGTVWHKDCFTCSNCKQVIGTGSFFPKGEDFYCVTCHETKFAKHCVKCNKGLVKAPVAAPMKDNPGTTTASTAKNAP | disrupting interaction strength |
